{
  "source": "IntAct's records for PubMed 7890747",
  "parents": {"B1": {"name": "Retinoblastoma-associated protein (Homo sapiens), P06400 (parent)", "chain": "MPPKTPRKTAATAAAAAAEPPAPPPPPPPEEDPEQDSGPEDLPLVRLEFEETEEPDFTALCQKLKIPDHVRERAWLTWEKVSSVDGVLGGYIQKKKELWGICIFIAAVDLDEMSFTFTELQKNIEISVHKFFNLLKEIDTSTKVDNAMSRLLKKYDVLFALFSKLERTCELIYLTQPSSSISTEINSALVLKVSWITFLLAKGEVLQMEDDLVISFQLMLCVLDYFIKLSPPMLLKEPYKTAVIPINGSPRTPRRGQNRSARIAKQLENDTRIIEVLCKEHECNIDEVKNVYFKNFIPFMNSLGLVTSNGLPEVENLSKRYEEIYLKNKDLDARLFLDHDKTLQTDSIDSFETQRTPRKSNLDEEVNVIPPHTPVRTVMNTIQQLMMILNSASDQPSENLISYFNNCTVNPKESILKRVKDIGYIFKEKFAKAVGQGCVEIGSQRYKLGVRLYYRVMESMLKSEEERLSIQNFSKLLNDNIFHMSLLACALEVVMATYSRSTSQNLDSGTDLSFPWILNVLNLKAFDFYKVIESFIKAEGNLTREMIKHLERCEHRIMESLAWLSDSPLFDLIKQSKDREGPTDHLESACPLNLPLQNNHTAADMYLSPVRSPKKKGSTTRVNSTANAETQATSAFQTQKPLKSTSLSLFYKKVYRLAYLRLNTLCERLLSEHPELEHIIWTLFQHTLQNEYELMRDRHLDQIMMCSMYGICKVKNIDLKFKIIVTAYKDLPHAVQETFKRVLIKEEEYDSIIVFYNSVFMQRLKTNILQYASTRPPTLSPIPHIPRSPYKFPSSPLRIPGGNIYISPLKSPYKISEGLPTPTKMTPRSRILVSIGESFGTSEKFQKINQMVCNSDRVLKRSAEGSNPPKPLKKLRFDIEGSDEADGSKHLPGESKFQQKLAEMTSTRTRMQKQKMNDSMDTSNKEEK", "partner": "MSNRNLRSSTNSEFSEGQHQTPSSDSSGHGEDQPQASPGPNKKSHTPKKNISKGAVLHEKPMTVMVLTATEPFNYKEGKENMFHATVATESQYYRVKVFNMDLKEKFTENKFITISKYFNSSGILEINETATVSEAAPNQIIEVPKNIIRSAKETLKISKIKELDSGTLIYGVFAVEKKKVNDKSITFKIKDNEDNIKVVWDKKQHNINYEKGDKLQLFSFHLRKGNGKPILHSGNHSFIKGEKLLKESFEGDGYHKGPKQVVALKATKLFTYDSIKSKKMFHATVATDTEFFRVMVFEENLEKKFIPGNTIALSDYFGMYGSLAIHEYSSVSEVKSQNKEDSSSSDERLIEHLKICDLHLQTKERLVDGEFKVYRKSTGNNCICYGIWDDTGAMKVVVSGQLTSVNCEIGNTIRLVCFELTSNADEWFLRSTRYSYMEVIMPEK"}},
  "data": [
    {"variants_of": "B1", "settings": "with ifi2_mouse Ifi202, Q9R002", "values": [
      {"variant": "C706F", "effect of a mutation on the interaction": "decreasing interaction"}
    ]}
  ]
}
